Results from patent US6428997B1, “Aminopeptidase derived from Bacillus licheniformis and process for preparation of natural type proteins” (LG Chemical Ltd., priority 1997, dated 2002).

How the values were obtained:
[1] = substrate: CC(C)C[C@H](N)C(=O)Nc1ccc([N+](=O)[O-])cc1; assay: Kinetic parameters of Bacillus licheniformis aminopeptidase (Lineweaver-Burk); format: biochemical; conditions: other: Tris-Cl pH 8.0, 37° C., 0.5 U enzyme, absorbance at 405 nm, Lineweaver-Burk plot
Protocol: (§1) Aminopeptidase activities of this invention were measured by the method of Pfleiderer (Pfleiderer, Meth. Enzymol., 19, 514-521, 1970). Precisely, 1 U of enzyme activity defines the enzyme quantity changing 1 absorbance at 405 nm which is measured by the process adding aminopeptidase in 1 ml solution of […] Tris-Cl (pH 8.0) and 2 mM leucine-p-nitroanilide (Sigma, USA), incubating at 37° C. for 1 min, then adding 100 μl of 70% acetic acid to stop the reaction. At that time leucine-p-nitroanilide was dissolved in dimethylsulfoxide (DMSO) to make 100 mM solution.
(§2) In order to compare substrate specificity of aminopeptidase of this invention, 2 kinds of substrate were used. In detail, one was synthetic substrates of p-nitroanilide derivative and purchased from Sigma, USA and the other was oligopeptide such as methionyl oligopeptide of SEQ. ID. NO: 1 which have amino acid sequence similar to N-terminus of methionyl HGH and leucyl oligopeptide of SEQ. ID. NO: 2. The oligopeptides of this invention were synthesized.
(§3) Enzyme reaction of aminopeptidase was performed by the process described in Reference Examples. At that time p-nitroanilide derivative was used as synthetic substrate. Leucine p-nitroanilide was used as substrate to perform the reaction in concentration of 0.03125, 0.0625, 0.125, 0.25, 0.5, 1 mM and methionine p-nitroanilide in 0.125, 0.25, 0.5, 1 mM and aminopeptidase in 0.5 U respectively. Above reactions using leucine-p-nitroanilide proceeded for 2 min and methionine-p-nitroanilide for 40 min. Then 70% acetic acid was added to stop the reactions and absorbance at 405 nm was measured. The product concentration was measured by adopting absorbance constant ε405=9450M^−1 cm^−1.
(§4) In reaction condition mentioned above, initial velocity of enzyme reaction was measured with varying the substrate concentration. Lineweaver-Burk plot was used to determine Km value and Maximum reaction velocity of aminopeptidase from Bacillus licheniformis. In addition kcat and kcat/Km was determined by using Km value and maximum reaction velocity described above.

[2] = substrate: CSCC[C@H](N)C(=O)Nc1ccc([N+](=O)[O-])cc1; assay: as above; format: biochemical; conditions: other: Tris-Cl pH 8.0, 37° C., 0.5 U enzyme, absorbance at 405 nm, Lineweaver-Burk plot
Protocol: as §1, §2, §3, §4

B1: Bacillus licheniformis aminopeptidase (Bacillus licheniformis DSM 13 = ATCC 14580) (protein)
chain: KFSKKFNENRAYQTIYHLSETIGPRVTGTAEEKKSAAFIASQMKKSNLKVSTQKFSIPDRLEGTLTVQGNNVPARPAAGSAPTAAEGLAAPLYDAGLGLPGDFTEEAKGKIAVILRGELTFYEKAKNAADAGASGVIIYNNVDSLVPLTPNLSGNKVDIPVVGVKKEDGEKLLSEQEAILKLKAHKNQTSQNVIGVRKAKGVKNPDIVYVTSHYDSVPYAPGANDNASGTSVVLELARILKTVPADKEIRFITFGAEEIGLLGSRHYVSTLSNQEVKRSVANFNLDMVATSWENASQLYINTPDGSANLVWQLSKAASLSLGKDVLFLHQGGSSDHVPFHEAGIDSANFIWREPGTGALEPWYHTPYDTIEHISKDRLKTAGQIAGTAVYNFTKKENRKPSYSSVAQ
Km [1]: 739 µM
kcat [1]: 130 s⁻¹
kcat/Km [1]: 176000 M⁻¹ s⁻¹
Km [2]: 1004 µM
kcat [2]: 2.59 s⁻¹
kcat/Km [2]: 2580 M⁻¹ s⁻¹
